Results from publication PMC10531985, “A Unique G-Quadruplex Aptamer: A Novel Approach for Cancer Cell Recognition, Cell Membrane Visualization, and RSV Infection Detection”.

Tests used:
nucleolin (NCL) [1] = molecular target: T1, nucleolin (NCL) (Homo sapiens, UniProt P19338 1-710); experiment: SPR; 150 mM KCl; SPR: 10 mM HEPES, 150 mM KCl, 3 mM EDTA, pH 7.4, NCL on CM5 chip, temperature not stated; EMSA: 5x binding buffer listed as 40 mM Tris, 30 mM KCl, 1 mM MgCl2, 1 mM DTT, pH 8.0, 200 nM probe, room temperature 25 min, gel with 20 mM KCl at 4 C; settings: protein: recombinant, parallel G4
nucleolin (NCL) [2] = molecular target: T1, nucleolin (NCL); experiment: SPR; up to 2 uM aptamer; SPR: 10 mM HEPES, 150 mM KCl, 3 mM EDTA, pH 7.4, NCL on CM5 chip, temperature not stated; EMSA: 5x binding buffer listed as 40 mM Tris, 30 mM KCl, 1 mM MgCl2, 1 mM DTT, pH 8.0, 200 nM probe, room temperature 25 min, gel with 20 mM KCl at 4 C; settings: protein: recombinant; no G4
nucleolin (NCL) [3] = molecular target: T1, nucleolin (NCL); experiment: EMSA; K+; SPR: 10 mM HEPES, 150 mM KCl, 3 mM EDTA, pH 7.4, NCL on CM5 chip, temperature not stated; EMSA: 5x binding buffer listed as 40 mM Tris, 30 mM KCl, 1 mM MgCl2, 1 mM DTT, pH 8.0, 200 nM probe, room temperature 25 min, gel with 20 mM KCl at 4 C; settings: protein: recombinant; label: 5'-FAM; parallel G4

T1 sequence (P19338 whole entry): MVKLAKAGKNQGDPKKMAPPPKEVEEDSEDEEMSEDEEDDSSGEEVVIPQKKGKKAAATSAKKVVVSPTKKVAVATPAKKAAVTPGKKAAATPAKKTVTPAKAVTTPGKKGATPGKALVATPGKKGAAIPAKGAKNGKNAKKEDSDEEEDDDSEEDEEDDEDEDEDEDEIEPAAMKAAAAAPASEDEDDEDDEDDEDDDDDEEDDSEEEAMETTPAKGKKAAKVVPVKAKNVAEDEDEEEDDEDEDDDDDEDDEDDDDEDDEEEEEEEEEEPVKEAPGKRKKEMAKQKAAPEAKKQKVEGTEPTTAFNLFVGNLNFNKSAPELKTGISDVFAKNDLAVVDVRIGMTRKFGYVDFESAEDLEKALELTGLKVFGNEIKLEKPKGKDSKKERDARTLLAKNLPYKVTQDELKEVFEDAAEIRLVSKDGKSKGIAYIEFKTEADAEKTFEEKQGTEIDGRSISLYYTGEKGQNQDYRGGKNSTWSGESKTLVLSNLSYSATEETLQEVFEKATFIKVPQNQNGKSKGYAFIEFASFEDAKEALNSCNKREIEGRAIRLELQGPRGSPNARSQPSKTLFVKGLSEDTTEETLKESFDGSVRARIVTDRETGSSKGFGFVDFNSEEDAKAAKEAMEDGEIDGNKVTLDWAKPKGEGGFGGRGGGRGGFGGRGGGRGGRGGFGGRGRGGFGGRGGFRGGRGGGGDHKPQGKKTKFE

B1: Apt-3 (structured_RNA)
RNA: GUUAGGGUUUAUGGGAUUG
Binder B1 has a Kd (nucleolin (NCL) [1]) of 20.4 nM.

B2: Apt-3 mutant (ssRNA)
RNA: GUUAGAGUUUAUGAGAUUG
B2: no binding (nucleolin (NCL) [2]).

B3: Apt-3-F (structured_RNA)
RNA: GUUAGGGUUUAUGGGAUUG
With B3 the Kd (nucleolin (NCL) [1]; label: 5'-FAM) was 24.9 nM and the Kd (nucleolin (NCL) [3]) was 77.1 nM.
